The target of the series is T1, CYS3 transcriptional activator (Neurospora crassa, UniProt P22697 1-236).
T1 sequence: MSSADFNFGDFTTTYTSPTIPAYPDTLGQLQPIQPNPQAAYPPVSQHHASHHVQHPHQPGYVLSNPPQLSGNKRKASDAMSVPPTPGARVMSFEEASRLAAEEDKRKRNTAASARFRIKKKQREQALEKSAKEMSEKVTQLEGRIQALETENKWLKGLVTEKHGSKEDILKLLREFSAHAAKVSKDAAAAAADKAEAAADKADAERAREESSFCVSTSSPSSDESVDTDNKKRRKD
Nature of the series: EMSA; Binding buffer not given (refs 14,20); 4% PAGE in 50 mM Tris-80 mM glycine-2 mM EDTA pH 8.5, 20 mA, 4 C. The note with it: protein: recombinant; chain copies: 2; label: 32P (T4 PNK); blunt.

B1: cys-16+ Site 3 (dsDNA)
DNA 1: AACCTGAATTGCGCCATAGCCAAA
DNA 2: TTTGGCTATGGCGCAATTCAGGTT
With B1, the binding result was “binds”.

Source of the values: article PMC3496659, “Analysis of the sulfur-regulated control of the cystathionine γ-lyase gene of Neurospora crassa”.
